Test results as given in article PMC10558455, “Rab41-mediated ESCRT machinery repairs membrane rupture by a bacterial toxin in xenophagy” (Nature Communications, 2023).

Target: T1, streptolysin O (SLO) secreted by Group A Streptococcus strain JRS4 (Streptococcus pyogenes JRS4 (serotype …, UniProt Q5XE40))
T1 construct: also called GAS pore-forming toxin; bacterial cytolysin
Experiment: co-IP
Conditions: partners not purified

B1: STAND-HS1 (anti-SLO intrabody) (scFv, V domains shown)
VH: EVQLQESGPSLVKPSQTLSLTCSVTGDSITSGYWNWIRKFPGNKFEYMGYISYGDSTYYNPSLKSRISITRDTSKNQYYLQLNSVTTEDTATYYCARLGNDYNWYFDVWGAGTTVTVSS
VL: DIQMNQSPSSLSASLGDTITITCHASQNINVWLSWYQQKPGNIPKLLIFKASNLYTGVPSRFSGSGSGTGFTLTISSLQPEDIATYYCQQGQTYPLTFGGGTKL
notes: also called anti-SLO scFv; anti-SLO intracellular antibody; not shown: 3xFLAG, N-terminal, kept
B1: binds.
